Numbering of substitutions follows the chain as printed.

Assay [1] deals with T1, cyno KLRG1 extracellular domain (ECD) (cynomolgus, biotinylated in the Octet assay (site not stated)).
T1 construct: Recombinant proteins were made as FC fusion or HIS tagged versions; also called cynomolgus-KLRG1-ECD; cyno KRG1 ECD
T1 chain: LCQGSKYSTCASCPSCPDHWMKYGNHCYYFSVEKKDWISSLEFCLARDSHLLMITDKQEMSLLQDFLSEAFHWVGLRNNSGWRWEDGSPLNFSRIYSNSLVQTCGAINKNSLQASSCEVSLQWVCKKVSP
Put plainly: hybridoma screening for binding to cyno KLRG1 ECD.

Assay [2] deals with T2, full length human KLRG1 (cell-expressed) (human, UniProt Q96E93 1-195).
T2 construct: whole, on cells; also called CHO-human-KLRG1
T2 sequence (looked up): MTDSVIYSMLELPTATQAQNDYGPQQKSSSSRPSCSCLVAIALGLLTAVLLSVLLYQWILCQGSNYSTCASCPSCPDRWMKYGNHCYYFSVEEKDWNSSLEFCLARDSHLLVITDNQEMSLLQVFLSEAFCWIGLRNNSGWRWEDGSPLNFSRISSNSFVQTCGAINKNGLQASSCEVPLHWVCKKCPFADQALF
Put plainly: FACS on CHO cells expressing full length human KLRG1, anti-mouse detection. Here is the method:
(§1) Binding of anti-KLRG1 monoclonal antibodies to cells that expressed human and cynomolgus-KLRG1 was carried out by FACS. Chinese hamster ovary (CHO) cells were stably transfected to express full length human KLRG1 (CHO-human-KLRG1) and cynomolgus KLRG1 (CHO-cynomolgus-KLRG1). […] Table 7 summarizes the EC50 binding data measured for selected antibodies.

Assay [3] has as its target T3, full length cynomolgus KLRG1 (cell-expressed) (cynomolgus, UniProt A0A2K5WAP9 1-186).
T3 construct: whole, on cells; also called CHO-cynomolgus-KLRG1; cyno KLRG1
T3 sequence: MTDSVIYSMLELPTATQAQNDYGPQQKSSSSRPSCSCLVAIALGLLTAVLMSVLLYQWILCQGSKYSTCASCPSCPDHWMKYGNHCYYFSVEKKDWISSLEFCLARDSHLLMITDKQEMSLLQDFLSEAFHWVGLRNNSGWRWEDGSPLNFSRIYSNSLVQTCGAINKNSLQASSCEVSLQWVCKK
Put plainly: FACS on CHO cells expressing full length cynomolgus KLRG1, anti-mouse detection. As for the experimental part: as §1

Assay [4] deals with T4, human KLRG1 extracellular domain (ECD) (human, UniProt Q96E93 60-186, biotinylated in the Octet assay (site not stated)).
T4 construct: Recombinant proteins were made as FC fusion or HIS tagged versions; also called Human-KLRG-ECD; human KLRG1 ECD
T4 sequence: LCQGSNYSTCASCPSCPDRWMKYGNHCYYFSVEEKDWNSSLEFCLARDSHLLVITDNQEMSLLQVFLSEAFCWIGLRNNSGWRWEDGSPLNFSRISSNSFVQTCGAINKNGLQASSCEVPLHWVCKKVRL
Put plainly: Octet BLI, biotinylated antigen on streptavidin sensor, antibody in solution, 1:1 fit. As for the experimental part: (§2) Binging kinetics of humanized antibodies for human and cynomolgus KLRG1 were determined by Octet® Systems (ForteBio) measurement. The Octet® platform includes instruments, biosensors, reagents, and assay kits for analysis of biomolecular interactions in 96- and 384-well microplates for use in real-time, label-free analysis for determination of affinity, kinetics, and concentration. The experimental set-up includes immobilizing biotinylated recombinant antigen (Human-KLRG-ECD or cynomolgus-KLRG1-ECD) on a streptavidin Octet® sensor to produce antigen loaded sensors. […] Thereafter, the sensors can be exposed to a solution of 1× phosphate buffered saline (PBS) buffer devoid of antibody for approximately 600 seconds to observe dissociation kinetics (kdis). The resulting data can then be fitted to a 1:1 binding kinetics model using, for example, ForteBio analysis software to calculate the KD. Kinetic binding parameters derived by this method are summarized in Table 8 for three humanized antibodies.

The target in assay [5] is T1, cyno KLRG1 extracellular domain (ECD). Described as above. As for the experimental part:
as §2

In another assay the target is T5, SPLNFSRISSNSFVQ
T5 peptide: SPLNFSRISSNSFVQ
Put plainly: peptide mapping: ABC_G1D03 on overlapping KLRG1 peptides, signal per peptide.

For the next assay, the target named is T6, WEDGSPLNFSRISSN
T6 peptide: WEDGSPLNFSRISSN
Described as above.

B1: ABC_G1D04 (antibody, V domains shown)
VH: EVQLQQSGPELVKPGSSLMMSCKSSGYTFTDYNIHWVKQSHGKRLEWIGFIDPKNGGTLYSEKFKDKATLTINKSSSTAYMELRSLTSEDSAVFYCAPDYYGSAWFAYWGQGTLVTVSA
VL: DIVMSQSPSSLTVSVGENVTMSCKSSQNLLYTSNQKNYLAWYQQKPGHSPKLLISWASTRESGVPDRFTGSGSGTDFTLTITSVKAEDLAVFYCQQYYHYPTFGGGTKLEIK
notes: Mouse hybridoma monoclonal antibody
On to B1, for which the binding result in assay [1] is “binds”. Also, the concentration for a half-maximal effect (EC50) in assay [2] is 213 nM; in assay [3], 7.2 nM.

B2: ABC_G1D02 (antibody, V domains shown)
VH: QVQLQQSGAELVRPGTSVKVSCKASGYAFTNYFIEWIKQRPGQGLEWIGVINPGSGGTNYNEKFKGKATLTADKSSSTAYMQLSSLTSEDSAVYFCTRPGHFDYWGQGTTLTVSS
VL: EIVLTQSPTTMAASPGEKITITCSASSSISSNYLHWYQQKPGFSPKLLIYKTSNLASGVPPRFSGSGSGTSYSLTIGTMEAEDVATYYCQQGNSIPRTFGGGTKLEIK
notes: as for B1
For B2, the binding result in assay [1] is listed as “binds”. Besides, the concentration giving a half-maximal response (EC50) was determined as 9.11 nM in assay [2] and 10.1 nM in assay [3].

B3: ABC_G1D05 (antibody, V domains shown)
VH: QVQLKQSGPGLVQPSQSLSITCTVSGFSLTTHGVHWVRQSPGKGLEWLGVIWSGGSTDYNAAFISRLSIRKDNSKSQVFFKMNSLQTNDTAIYYCARLRLPAMDYWGQGTSVTVSS
VL: QIVLTQSPTIMSASLGERVTMTCTASSSVSSTYLHWYQQKPGSSPKLWIYSTSNLASGVPARFSGSGSGTSYSLTISSMEAEDAATYYCHQYHRSPLSFGAGTKLELK
notes: as for B1
As to B3, in assay [1], the binding result is given as “binds”. Also, the figures for the EC50 in assay [2] and in assay [3] were 5.15 nM and 5.93 nM, respectively.

B4: ABC_HG1D03 (antibody, V domains shown)
VH: EVQLVQSGAEVKKPGASVKVSCKASGYTFTDHNMHWVKQATGQGLEWFGFINPNTGVTRYNQKFQGRVTLTINKAISTAYLELSSLRSEDTAVYYCARDYYGSAWFAYWGQGTLVTVSS
VL: not shown
notes: The printed VK entry ends at '...FGGGTKV' (appears cut short of the usual end of the domain)
Consider B4, for which, in assay [4], the dissociation constant (Kd) came out at 0.156 nM, the koff came to 5.91e-05 s⁻¹ and the on-rate (kon) was 380000 M⁻¹ s⁻¹. Besides, in assay [5], the equilibrium dissociation constant (Kd) was 0.0609 nM, the off-rate constant (koff) came out at 3.82e-05 s⁻¹ and the association rate constant (kon) came out at 627000 M⁻¹ s⁻¹.

B5: ABC_G1D03 (antibody, V domains shown)
VH: EVQLQQSGPELVKPGASVKMSCKTSGYTFTDHNMHWLKQSHGKGLEWFGFINPNTGVTRYNQKFNGKATLTINKSSSTAYLDLRSLTSEDSAVYYCTRDYYGSAWFAYWGQGTLVTVSA
VL: DIVMSQSPASQTVSVGEKVTMSCKSSQTLLYSSDQKNYLAWYQQKPGQSPKLLIYWASTRESGVPDRFTGSGSGTDFTLTISSVKAEDLAVYYCQQYYNYPTFGGGTKLEIK
notes: as for B1
Turning to B5, the binding result (in assay [1]; with SPLNFSRISSNSFVQ; with WEDGSPLNFSRISSN) was “binds” each time. Also, the EC50 was 6.3 nM in assay [2] and 8.63 nM in assay [3].

B6: ABC_G1D01 (antibody, V domains shown)
VH: EVQLQQSGPELVKPGASVKMSCKASGYTFTDYNIHWVKQSHGKSLEWIGFFNPKNGVTINNQNFKGKAALTVNKSSSTAYMELRRLTSEDSAVYYCARDYYGTAWFAYWGQGTLVTVSA
VL: B5 VL with A9S, Q11L, T12A, K24R, T28S, D34N, Y97F, N99S
notes: as for B1
For the molecule B6, the half-maximal effective concentration (EC50) in assay [2] turned out to be 4.87 nM; in assay [3] it was 3.44 nM.

B7: ABC_G1D06 (antibody, V domains shown)
VH: QVQLQQSGAELVRPGASVTLSCKASGYKFSDYEIHWVKQTPVYGLEWIGALEPATGGTAYNPNFKGKAILTADKSSTTAYMELRSLTSEDSAVYYCSMHLAVYWGQGTLVTVSA
VL: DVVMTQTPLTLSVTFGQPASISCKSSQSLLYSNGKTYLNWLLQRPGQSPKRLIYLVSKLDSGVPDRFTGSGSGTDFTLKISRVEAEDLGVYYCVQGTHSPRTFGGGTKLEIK
notes: as for B1
As to B7, the binding result in assay [1] is on record as “binds”. Also, the EC50 in assay [2] was 72.5 nM; in assay [3], 3.4 nM.

B8: ABC_HG1D02 (antibody, V domains shown)
VH: QVQLVQSGAEVKKPGSSVKVSCKASGYAFTNYFIEWVRQRPGQGLEWMGVINPGSGGTNYNEKFKGRVTITADKSSSTAYMELSSLRSEDTAVYYCARPGHFDYWGQGTTVTVSS
VL: EIVLTQSPTTLSLSPGERATLSCSASSSISSNYLHWYQQKPGFAPRLLIYKTSNLASGIPPRFSGSGSGTDFTLTISRLEPEDFAVYYCQQGNSIPRTFGQGTKVEIKR
notes: The printed VK entry ends in 'RTV' (start of the constant kappa domain)
In assay [4], B8 displayed a Kd of 0.0567 nM, a koff of 3.07e-05 s⁻¹ and a kon of 541000 M⁻¹ s⁻¹. For the same molecule, in assay [5], the dissociation constant (Kd) was 0.388 nM, the off-rate (koff) stood at 0.000142 s⁻¹ and the kon came to 367000 M⁻¹ s⁻¹.

The values above are taken from patent publication US20200325233A1 (ABCURO, published 2020).
